These results are taken from patent US20230220056A1 (KOOKMIN UNIVERSITY INDUSTRY ACADEMY COOPERATION FOUNDATION, published 2023).

By Kd is commonly meant the concentration at which binding is half-saturated.

For assay [1], the target named is T1, recombinant human GRP94 (human, UniProt P14625 22-799, limits assumed).
T1 construct: also called rhGRP94; glucose-regulated protein 94
Put plainly: ELISA, 100 ng rhGRP94 coated per well, IgG 0-500 nM; no unit beside the value, concentration axis in nM and the dotted drop line meets it at about 0.15. Here is the method: (§1) Each well of 96-well plates was coated with 0.1 μg of recombinant human GRP94 (rhGRP94), blocked with 3% (w/v) bovine serum albumin (BSA) in phosphate buffered saline (PBS) for 2 hours at 37° C., and incubated with 100 μL of GRP94 targeting IgG (20 μg/mL) for 2 hours at 37° C. The plates were washed thrice with 0.05% PBS-T, and 100 μL of a 500:1 dilution of the secondary antibody anti-human Fc Ab (Sigma-Aldrich) was added to each well. Incubation at 37° C. for 1 hour was followed by three rounds of washing with 0.05% PBS-T. Then, 100 μL of 3,3′,5,5′-tetramethylbenzidine (1-step ultra TMB) substrate solution was added to each well. Finally, optical densities were measured at 450 nm using a microplate reader (Synergy H1, BioTek).
(§2) In this regard, each well of 96-well plates was coated with 100 ng of rhGRP94 and blocked with 3% (w/v) bovine serum albumin (BSA) in PBS at 37° C. for 2 hours. Next, the plates were incubated with a concentration gradient of 0 nM to 500 nM of each clone for the GRP94 IgGs at 37° C. for 2 hours. The use of a secondary antibody and the measurement of optical density were conducted as described for the ELISA.
A general note: In an ELISA, binding on a coated surface is turned into a signal by an enzyme label.

The target of assay [2] is T1, recombinant human GRP94. In words: ELISA, 100 ng rhGRP94 coated per well, IgG 0-500 nM; no unit beside the value, concentration axis in nM and the dotted drop line meets it at about 0.5. As for the experimental part:
as §1, §2

The target of assay [3] is T1, recombinant human GRP94. In words: ELISA, 100 ng rhGRP94 coated per well, IgG 0-500 nM; no unit beside the value, concentration axis in nM and the dotted drop line meets it at about 0.1. As for the experimental part:
as §1, §2

The target of assay [4] is T1, recombinant human GRP94. In words: ELISA, 100 ng rhGRP94 coated per well, IgG 0-500 nM; no unit beside the value, concentration axis in nM and the dotted drop line meets it at about 1.2. As for the experimental part: as §1, §2

Where a chain is given by its changes, count along the chain named.

T1 sequence (P14625 22-799 limits assumed): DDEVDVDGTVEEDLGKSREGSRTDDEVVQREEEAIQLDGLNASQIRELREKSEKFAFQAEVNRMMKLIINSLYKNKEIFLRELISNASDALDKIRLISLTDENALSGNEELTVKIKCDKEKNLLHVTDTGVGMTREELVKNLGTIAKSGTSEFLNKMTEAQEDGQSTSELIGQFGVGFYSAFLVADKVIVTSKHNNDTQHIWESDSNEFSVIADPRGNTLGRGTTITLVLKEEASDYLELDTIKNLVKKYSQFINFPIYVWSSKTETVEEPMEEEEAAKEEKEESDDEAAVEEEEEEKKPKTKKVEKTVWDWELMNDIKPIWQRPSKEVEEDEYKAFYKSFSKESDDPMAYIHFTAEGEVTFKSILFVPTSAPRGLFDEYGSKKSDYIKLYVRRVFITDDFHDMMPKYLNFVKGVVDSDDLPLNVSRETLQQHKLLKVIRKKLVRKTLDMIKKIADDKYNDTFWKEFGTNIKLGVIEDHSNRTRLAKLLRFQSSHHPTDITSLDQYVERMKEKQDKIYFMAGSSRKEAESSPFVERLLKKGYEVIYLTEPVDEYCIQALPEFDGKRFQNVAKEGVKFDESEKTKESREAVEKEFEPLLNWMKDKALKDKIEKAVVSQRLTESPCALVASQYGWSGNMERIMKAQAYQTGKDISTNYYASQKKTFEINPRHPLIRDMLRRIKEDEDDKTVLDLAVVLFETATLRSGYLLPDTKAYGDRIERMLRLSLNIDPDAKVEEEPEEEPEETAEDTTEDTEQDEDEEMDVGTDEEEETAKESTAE

B1: anti-GRP94 human IgG antibody 2H5 (antibody, V domains shown)
VH: EVQLLESGGGLVQPGGSLRLSCAASGFTFSGYAMSWVRQAPGKGLEWVSAISHGGSSKYYADSVKGRFTISRDNSKNTLYLQMNSLRAEDTAVYYCAKDLLSPLQSIGSYDDAMDVWGQGTLVTVSS
VL: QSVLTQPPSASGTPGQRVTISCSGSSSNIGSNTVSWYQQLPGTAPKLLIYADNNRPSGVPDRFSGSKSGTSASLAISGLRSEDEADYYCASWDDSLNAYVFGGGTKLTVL
notes: Tested as whole human IgG; also called GRP94 IgG 2H5
Regarding B1, the Kd in assay [1] was 0.142 nM.

B2: anti-GRP94 human IgG antibody B5 (antibody, V domains shown)
VH: EVQLLESGGGLVQPGGSLRLSCAASGFTFSNYYMSWVRQAPGKGLEWVSGIYPNSGSTYYADSVKGRFTISRDNSKNTLYLQMNSLRAEDTAVYYCARDPLHPARFPFDYWGQGTLVTVSS
VL: QSVLTQPPSASGTPGQRVTISCTGSSSNIGNNAVSWYQQLPGTAPKLLIYADSHRPSGVPDRFSGSKSGTSASLAISGLRSEDEADYYCGAWDASLNAYVFGGGTKLTVL
notes: Tested as whole human IgG made from the selected scFv's VH and VL genes in pcDNA3.1 / Expi293 cells; also called GRP94 IgG B5
Take B2: in assay [2], the Kd was 0.467 nM.

B3: anti-GRP94 human IgG antibody E5 (antibody, V domains shown)
VH: EVQLLESGGGLVQPGGSLRLSCAASGFTFSNYAMSWVRQAPGKGLEWVSGISSSSGSTYYADSVKGRFTTSRDNSKNTLYLQMNSLRAEDTAVYYCARDRHPFSPNWFDYWGQGTLVTVSS
VL: B2 VL with T23S, S26P, N31S, A33T, S35T, G90A, A91S, A94D, A98G
notes: Tested as whole human IgG; also called GRP94 IgG E5
For the molecule B3, in assay [3], the Kd turned out to be 0.0997 nM.

B4: anti-GRP94 human IgG antibody 3G7 (antibody, V domains shown)
VH: EVQLLESGGGLVQPGGSLRLSCAASGFTFSNYSMSWVRQAPGKGLEWVSGIYYGSGNKYYADSVKGRFTISRDNSKNTLYLQMNSLRAEDTAVYYCAKNLASFDYWGQGTLVTVSS
VL: B2 VL with T23S, N31S, A33S, S35N, A51S, D52N, A91T, A94S, N97S, A98G
notes: Tested as whole human IgG; also called GRP94 IgG 3G7
Regarding B4, the Kd in assay [4] stood at 1.21 nM.
